{"source": "patent US8821943B2", "about": "“Methods and compositions for targeted delivery of therapeutic agents” (Board of Regents of the University of Nebraska, priority 2006, dated 2014)", "test": "Particle size, polydispersity and zeta-potential by dynamic light scattering", "type": "physicochemical", "description": "Nanoparticle carrier particles were formed by the methods of the preceding Example, and characterized as follows. The particle size and the zeta-potential were measured using Zeta Plus zeta-potential analyzer (Brookhaven Instruments Ltd., New York, N.Y.), which employs the dynamic light scattering technique for particle size measurement. The particle size and zeta-potential measurements were made after 1:1000 dilution of particle stock in filtered deionized water. Further, the particles were visualized using a transmission electron microscope (TEM). The carbon-coated grids were floated on a suspension droplet of plain or functionalized nanoparticles on a flexible plastic film (Parafilm, Pechiney Plastic Packaging, Neenah, Wis.) to allow the adsorption of nanoparticles onto the grid. After drying the particles, uranyl acetate was added as a negative stain to the carbon grid and allowed to react with the particles. This procedure makes the particles electron dense, allowing their visualization using an electron microscope. The particles were photographed using EM410 Phillips electron microscope (Eindhoven, The Netherlands) set at 60 kV and a magnification of 153000×.\nCharacterization of particles: The particle size and the zeta-potential were measured using ZetaPlus® zeta-potential analyzer, Brookhaven Instruments Ltd. (New York, N.Y.), which employs the dynamic light scattering technique for particle size measurement. The particle size and zeta-potential measurements were carried out after 1:1000 dilution of particle stock in filtered deionized water before lyophilization in filtered deionized water. The effective diameter of conjugated nanoparticles was higher than that of unconjugated nanoparticles.\nParticle Size Analysis: Particle size and zeta-potential of the nanoparticles before and after conjugation following lyophilization were measured in double distilled water (100 μl of particle/1 ml of water) using dynamic light scattering (DLS). After lyophilization the plasmid loaded particles were weighed (1 mg) into glass Kimble tubes. To each tube, 1 ml of double distilled water was added and vortexed at high speed (Vortex Genie, Scientific Industries, Bohemia, N.Y.) till the particles were resuspended. The particle size and zeta potential was determined using dynamic light scattering after dilution (1:10 in double distilled water) (Brookhaven Instruments Corp., Holtsville, N.Y.). Nanoparticle size after lyophilization was 210.4±0.68 nm and zeta potential was −32.85±0.87 mV. Nanoparticle size and zeta potential was measured after conjugation with deslorelin and transferrin. Similarly, the unconjugated nanoparticles were also treated under the same conditions as with the conjugated nanoparticles (the conjugation protocol as mentioned above).\nTransport studies were conducted in bovine nasal tissue. Bovine nasal tissue was obtained from freshly slaughtered cattle, and different regions (MTA, MTP, ITP) were prepared as described in Example 13. Nanoparticles coupled to deslorelin or transferring via aldehyde sulfate moieties were prepared as described in Example 3. The nanoparticle size was measured using a Zeta Plus Analyzer (Brookhaven Instruments Limited, UK). Particle size was analyzed before and after ligand conjugation in deionized filtered water.", "data": [{"substance": "Transferrin-AS: transferrin-aldehyde sulphate-conjugated polystyrene nanoparticles", "values": [{"measurement": "Zeta potential", "setting": "Table 2, polystyrene nanoparticles", "value": "−20.62 ± 0.82", "unit": "mV"}, {"measurement": "Measured Diameter", "setting": "Table 2, polystyrene nanoparticles, 1:1000 dilution in filtered deionized water, includes hydrodynamic layer, n = 3", "value": "67.5 ± 1.0", "unit": "nm"}, {"measurement": "Zeta potential", "setting": "Table 6", "value": "−20.62 ± 0.82", "unit": "mV"}, {"measurement": "Effective diameter", "setting": "Table 6, 1:1000 dilution in filtered deionized water", "value": "67.5 ± 1.0", "unit": "nm"}]}]}
